First the molecules themselves.
B1: LINE1-full (parent)
chain: UACGUAGGUGGUUUUCCCCUGAUAGUGCUAAGGGGGCCUGGAAGUUUGGACUGGGCAGAGCUCAACACAGCGUGGCAAAGUGGCUGUGGCUAGACUGCCUCUCUGGAUUCCUCGUCACUCAGCAGGGCAUCUCUGAGAGAAAUGCC

The variants in this series derive from B1. Briefly: self-cleavage, relative activity (ratio to wild type); higher = more cleavage; in vitro, sequencing; the parent is a self-cleaving ribozyme.
For G34A U46A, the self-cleavage came to 1.2.
In the case of G34A A77U, the self-cleavage came out at 1.33.
As for G34A C66U, the self-cleavage is 0.05.
For G36A A43G the value was 1.07; for G35A A142G, 1.14; for G34C C37U, 0.84.
For G36A A117G the value was 1.34.
With C37G U45C, the self-cleavage is 1.6.
G35U U100A: the self-cleavage was found to be 0.78.
In the case of G35A A140G it was 0.81; in that of C38A U96G, 0.1.
Consider C38U U46C, for which the self-cleavage stood at 1.51.
As to G36A A69G, the self-cleavage was 0.34.
Take G36C U91C: the self-cleavage was 0.51.
In the case of G35U A142G, the self-cleavage amounted to 1.56.
Turning to G36C U143C, the self-cleavage is 1.43.
For the variant G36A C38A, the self-cleavage stood at 1.18.
Consider G34U U62C, for which the self-cleavage worked out at 0.02.
For G35A A69G the value was 0.21.
For the variant G35A A69U, the self-cleavage is 0.02.
For C37U A79G the value was 1.1.
For G34U C90U the value was 0; for C38A U39C, 1.77.
For G35U U81A, the self-cleavage turned out to be 1.82.
In the case of C38A A50G it was 0.51; in that of G36C U47C, 0.92.
Consider G35A A78G, for which the self-cleavage was found to be 0.9.
Regarding G36U U96C, the self-cleavage was 0.07.
For the variant C38U C101U, the self-cleavage is 1.82.
With C37G U134C, the self-cleavage worked out at 0.66.
For C38A the value was 1.28; for C38U, 1.33.
Consider C38A A140U, for which the self-cleavage is 1.1.
On to G34A G82U, for which the self-cleavage turned out to be 2.19.
On to G35A A92C, for which the self-cleavage was found to be 0.05.
For G35U U112C, the self-cleavage was determined as 0.75.
Consider C37U U47A, for which the self-cleavage came to 1.41.
In the case of G35U A79G, the self-cleavage is 1.22.
In the case of G35C A94G it was 0.14; in that of C37G A43G, 1.36.
As to G35U A129G, the self-cleavage is 1.57.
As for G36C U96C, the self-cleavage turned out to be 0.17.
On to U39A A141U, for which the self-cleavage is 1.45.
Take U39A A141G: the self-cleavage came to 1.55.
In the case of G35A G106A it was 1.21; in that of U39A C111A, 1.55.
With G35U U102C, the self-cleavage stood at 1.73.
For G35U U102A the value was 1.8; for C38A A142G, 0.64.
As to G36A G89U, the self-cleavage was found to be 0.01.
As to G35A A64U, the self-cleavage worked out at 0.31.
As to C38U C61G, the self-cleavage was 0.02.
As to C37G U115C, the self-cleavage turned out to be 1.44.
Regarding G34U A42U, the self-cleavage came to 1.15.
For U39A C128G, the self-cleavage came to 1.62.
On to G36A C118G, for which the self-cleavage came out at 1.04.
Regarding C38U A140G, the self-cleavage is 1.24.
For the variant G35C U91C, the self-cleavage stood at 0.81.
Consider G35U C145U, for which the self-cleavage is 1.21.
On to C38A A43G, for which the self-cleavage amounted to 0.59.
Regarding G36U A141G, the self-cleavage is 0.91.
Take G34U U104C: the self-cleavage came to 1.34.
Regarding G36U A69G, the self-cleavage came to 0.
For C38U U85C the value was 0.15; for C37U G54U, 0.41; for C37U U143C, 0.84.
For G34C U96C the value was 0.14.
For C37U A129U the value was 0.45; for U39A A136U, 1.52.
Regarding U39A A136G, the self-cleavage worked out at 1.49.
Turning to C38U A67U, the self-cleavage is 0.07.
Turning to C38U A67G, the self-cleavage came to 0.42.
In the case of G35A G36C, the self-cleavage came to 1.05.
In the case of G36A A79G, the self-cleavage stood at 0.96.
Consider G35U A141G, for which the self-cleavage was 1.09.
For the variant U39A A79G, the self-cleavage came to 1.35.
G35A U109A: the self-cleavage is 1.59.
Regarding G34U U108C, the self-cleavage worked out at 1.56.
Regarding C38U A94G, the self-cleavage was found to be 0.29.
As for U39A A124U, the self-cleavage is 1.61.
Regarding U39A A77U, the self-cleavage turned out to be 1.38.
Take G34C U130C: the self-cleavage was 0.88.
G36C U104A: the self-cleavage stood at 1.43.
Consider U39A A140G, for which the self-cleavage is 1.36.
Turning to C37U A67G, the self-cleavage was 0.22.
As to U39A G86A, the self-cleavage amounted to 0.08.
As to G35A A107U, the self-cleavage worked out at 1.41.
Consider C38G U39G, for which the self-cleavage was 1.28.
For G34C A138G, the self-cleavage amounted to 2.05.
As for C37G A92G, the self-cleavage was 0.04.
For the variant G34A C146A, the self-cleavage stood at 1.39.
For C37A U39C the value was 1.35; for G34U U100C, 1.5; for C37A G40U, 1.04.
For C37U U62C the value was 0.04; for G35C A141G, 0.61; for C38U U100C, 1.9.
As for C37G U91C, the self-cleavage is 0.32.
In the case of G36C U87A it was 0.14; in that of G36U U62C, 0.02.
For G36A A42G the value was 1.07.
For U39A C116A, the self-cleavage was 1.38.
In the case of C37U U102A it was 1.19.
For G34A C37U the value was 1.1.
For C37U G40A the value was 0.68; for G35A U100C, 1.36; for G36C A57U, 0.07.
Take G36C A57G: the self-cleavage was determined as 0.9.
Consider G36A G105A, for which the self-cleavage is 1.46.
For G34C U73C, the self-cleavage came out at 1.82.
Turning to G35A U143C, the self-cleavage stood at 1.04.
For G35U A43U the value was 1.33; for C37U C123U, 1.67; for U39A C98U, 0.45.
With G35A C131U, the self-cleavage came to 1.67.
For G34A U112C the value was 0.94.
In the case of G35U U130C it was 1.74; in that of G36C A141G, 1.36.
As for C37A U45C, the self-cleavage was determined as 1.01.
For G34A U73A the value was 0.8; for C38U U52C, 1.44.
Take C38U U52A: the self-cleavage turned out to be 1.25.
For G34A U130C the value was 1.32.
Turning to G36C G82U, the self-cleavage was found to be 1.65.
For G34A U143G, the self-cleavage was 1.64.
With G35C U46C, the self-cleavage amounted to 1.38.
With G35A A117U, the self-cleavage was 0.56.
Take G35A A117G: the self-cleavage turned out to be 1.7.
U39A G88A: the self-cleavage is 0.08.
G35A U45C: the self-cleavage stood at 0.97.
Turning to G36A U112C, the self-cleavage was 1.29.
For G36A U119C, the self-cleavage came out at 2.42.
For G36A U119A the value was 1.36.
Turning to G36U A79G, the self-cleavage came out at 1.3.
With U39A C90A, the self-cleavage worked out at 0.03.
In the case of U39A C90G it was 0.04; in that of C38U U104C, 1.71; in that of G35A G83C, 0.71.
Take G34C A140U: the self-cleavage was 1.31.
For G34C A140C, the self-cleavage was 1.79.
As to G34A A78U, the self-cleavage was found to be 1.75.
With G34A A78G, the self-cleavage stood at 1.27.
G36A G40U: the self-cleavage was 0.66.
For the variant C38U A107G, the self-cleavage was found to be 1.63.
Turning to G35U A77U, the self-cleavage is 1.31.
In the case of G36U U104C it was 2.32.
As for C38A G97A, the self-cleavage came to 0.05.
For G35U G55U, the self-cleavage was 0.72.
For G34U A140U, the self-cleavage came out at 1.64.
For the variant G34U A140G, the self-cleavage was 1.67.
As for U39A G48A, the self-cleavage is 1.22.
Take C37U U108A: the self-cleavage amounted to 1.01.
For C38U A64G, the self-cleavage amounted to 0.17.
As for C38U A64U, the self-cleavage was found to be 0.35.
As to U39A A43G, the self-cleavage was found to be 0.63.
In the case of U39A A43C it was 0.66; in that of C38A A124G, 0.68.
In the case of C37G A141G, the self-cleavage came out at 1.66.
In the case of G34A G54A, the self-cleavage turned out to be 0.78.
In the case of C38A A64G, the self-cleavage was found to be 0.18.
For the variant C38U A121G, the self-cleavage is 1.72.
Regarding C37G A117G, the self-cleavage is 1.66.
On to G35A A79G, for which the self-cleavage was 1.36.
In the case of G35U U46A it was 1.07; in that of G36U A140G, 1.18.
Turning to U39A G53A, the self-cleavage was found to be 1.33.
In the case of U39A A64G it was 0.21.

Values taken from the RNAGym collection of RNA variant scans (doi:10.7554/elife.90254).
